Laboratory results published in publication PMC5722641 (Developmental Cell, 2017).

Biological target: purified Drosophila E2F1 (in vitro binding assay) (Drosophila, UniProt Q27368 1-805)
Assay: in vitro binding assay

purified Drosophila E2F1 (in vitro binding assay), sequence (Q27368 whole entry): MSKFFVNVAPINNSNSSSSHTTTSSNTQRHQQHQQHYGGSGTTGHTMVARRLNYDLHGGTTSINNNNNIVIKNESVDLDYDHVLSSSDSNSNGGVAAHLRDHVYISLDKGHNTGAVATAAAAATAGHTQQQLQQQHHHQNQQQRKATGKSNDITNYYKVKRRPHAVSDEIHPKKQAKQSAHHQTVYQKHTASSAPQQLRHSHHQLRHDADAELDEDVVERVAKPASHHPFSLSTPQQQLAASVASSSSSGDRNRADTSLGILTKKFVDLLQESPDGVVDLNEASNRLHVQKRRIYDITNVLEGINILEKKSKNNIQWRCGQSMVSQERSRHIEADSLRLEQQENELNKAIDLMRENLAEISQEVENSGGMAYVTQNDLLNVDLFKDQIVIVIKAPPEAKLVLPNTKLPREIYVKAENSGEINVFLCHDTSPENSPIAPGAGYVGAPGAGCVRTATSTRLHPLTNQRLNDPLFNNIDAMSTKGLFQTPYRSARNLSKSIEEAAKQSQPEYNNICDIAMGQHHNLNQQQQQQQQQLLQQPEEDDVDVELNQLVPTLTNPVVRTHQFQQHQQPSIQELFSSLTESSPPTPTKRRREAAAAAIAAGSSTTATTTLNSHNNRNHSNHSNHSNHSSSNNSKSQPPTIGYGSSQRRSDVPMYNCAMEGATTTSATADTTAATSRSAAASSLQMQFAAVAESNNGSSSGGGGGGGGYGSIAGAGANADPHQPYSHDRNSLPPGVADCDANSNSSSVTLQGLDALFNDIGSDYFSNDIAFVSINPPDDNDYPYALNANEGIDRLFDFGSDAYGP

B1: purified Drosophila Sd (in vitro binding assay) (natural protein)
chain: MKNITSSSTCSTGLLQLQNNLSCSELEVAEKTEQQAVGPGTIPSPWTPVNAGPPGALGSADTNGSMVDSKNLDVGDMSDDEKDLSSADAEGVWSPDIEQSFQEALSIYPPCGRRKIILSDEGKMYGRNELIARYIKLRTGKTRTRKQVSSHIQVLARRKLREIQAKIKVQFWQPGLQPSTSQDFYDYSIKPFPQPPYPAGKTSTAVSGDETGIPPSQLPWEGRAIATHKFRLLEFTAFMEIQRDEIYHRHLFVQLGGKPSFSDPLLETVDIRQIFDKFPEKSGGLKDLYEKGPQNAFYLVKCWADLNTDLTTGSETGDFYGVTSQYESNENVVLVCSTIVCSFGKQVVEKVESEYSRLENNRYVYRIQRSPMCEYMINFIQKLKNLPERYMMNSVLENFTILQVMRARETQETLLCIAYVFEVAAQNSGTTHHIYRLIKE
binding result: binds
